Legend:
[1] = system: anti-OVA antibody (Ab) response; test: Example 2: anti-OVA antibody response to aggOVA; type: in vivo, C57BL/6 mice; conditions: 25 μg aggOVA i.v. d0, 14, 28 then boosts; nanocarriers i.v. (100 μg rapamycin) concomitantly d0, 14, 28 only; days 25, 40 and next 60 days; FIG. 3
[2] = system: anti-OVA IgG antibody response; test: Example 9: anti-OVA IgG antibody titers; type: in vivo, C57BL/6; conditions: 2.5 μg pOVA i.v. weekly; 0.2 mg nanocarrier admixed days 0, 7, 14; FIG. 11
Experimental: The control group of C57BL/6 age-matched (5-6 weeks) female were injected i.v. in the tail vein with 2.5 μg of an immunogenic form of particulate Ovalbumin (pOVA) and 2 μg of Keyhole Limpet Hemocyanin (KLH) s.c. in the hind limb once a week for 49 days (d0, 7, 14, 20, 28, 35, 42, 49).

B1: aggOVA: chicken ovalbumin induced using high sheer to form aggregates to increase its immunogenicity (protein, UniProt P01012 2-386, looked up)
Ovalbumin: GSIGAASMEFCFDVFKELKVHHANENIFYCPIAIMSALAMVYLGAKDSTRTQINKVVRFDKLPGFGDSIEAQCGTSVNVHSSLRDILNQITKPNDVYSFSLASRLYAEERYPILPEYLQCVKELYRGGLEPINFQTAADQARELINSWVESQTNGIIRNVLQPSSVDSQTAMVLVNAIVFKGLWEKAFKDEDTQAMPFRVTEQESKPVQMMYQIGLFRVASMASEKMKILELPFASGTMSMLVLLPDEVSGLEQLESIINFEKLTEWTSSNVMEERKIKVYLPRMKMEEKYNLTSVLMAMGITDVFSSSANLSGISSAESLKISQAVHAAHAEINEAGREVVGSAEAGVDAASVSEEFRADHPFLFCIKHIATNAVLFFGRCVSP
modifications: shear-induced aggregates
- anti-OVA antibody (IgG) response [1]: prominent anti-OVA antibody (Ab) response

B2: pOVA: immunogenic form of particulate Ovalbumin (protein, UniProt P01012 2-386, looked up)
Ovalbumin: B1 Ovalbumin
modifications: particulate form
notes: immunogenic form of particulate Ovalbumin
- anti-OVA IgG antibody titers at day 54 [2]: robust immune response
